# Target: mouse LSR (lipolysis stimulated receptor) (mouse) (UniProt Q99KG5)
# Assay: cell-based or functional assay
# Chain of UniProt Q99KG5 (Q99KG5 36-594): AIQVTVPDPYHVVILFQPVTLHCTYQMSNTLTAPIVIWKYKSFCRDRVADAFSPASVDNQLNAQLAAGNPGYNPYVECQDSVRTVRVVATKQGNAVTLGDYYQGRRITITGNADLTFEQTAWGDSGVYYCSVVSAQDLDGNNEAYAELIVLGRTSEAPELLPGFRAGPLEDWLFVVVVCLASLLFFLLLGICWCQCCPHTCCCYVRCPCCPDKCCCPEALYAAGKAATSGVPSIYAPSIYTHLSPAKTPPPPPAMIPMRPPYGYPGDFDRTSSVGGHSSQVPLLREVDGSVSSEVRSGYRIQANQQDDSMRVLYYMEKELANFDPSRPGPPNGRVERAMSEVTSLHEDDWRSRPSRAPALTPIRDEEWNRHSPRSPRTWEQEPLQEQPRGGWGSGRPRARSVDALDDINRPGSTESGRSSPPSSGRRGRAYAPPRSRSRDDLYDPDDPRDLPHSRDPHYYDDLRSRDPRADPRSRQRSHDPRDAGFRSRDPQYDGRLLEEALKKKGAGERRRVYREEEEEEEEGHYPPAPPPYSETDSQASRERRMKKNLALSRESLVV
substance,measurement,value
125I-mouse leptin (from UniProt P41160 22-167) (ligand),cell-associated 125I-leptin in BPRCL mouse liver cells after pre-incubation with increasing AdipoQ (AQ) or globular AdipoQ (AQ-GH),> 30%

# Reference: US20050288223A1
